A word on the EC50: it is the midpoint of the concentration-response curve. Broadly, the IC50 is the concentration at which inhibition is half-maximal. The Kd is the free concentration of one partner at which half of the binding sites on the other are occupied at equilibrium, for simple one-to-one binding. What is called koff is a measure of how fast the partners let go of each other. As a reminder, the kon is the rate constant with which the complex forms. A word on the EC50 (read off the curve): it is the midpoint of the concentration-response curve.

Experiment [1] deals with T1, human PSMA expressed on cells (human, UniProt Q04609 1-750).
T1 construct: One molecule for both cell lines (CHO human PSMA, DU145 PSMA); the cell line stands under assay; also called CHO human PSMA; CHO PSMA
T1 sequence (Q04609 whole entry): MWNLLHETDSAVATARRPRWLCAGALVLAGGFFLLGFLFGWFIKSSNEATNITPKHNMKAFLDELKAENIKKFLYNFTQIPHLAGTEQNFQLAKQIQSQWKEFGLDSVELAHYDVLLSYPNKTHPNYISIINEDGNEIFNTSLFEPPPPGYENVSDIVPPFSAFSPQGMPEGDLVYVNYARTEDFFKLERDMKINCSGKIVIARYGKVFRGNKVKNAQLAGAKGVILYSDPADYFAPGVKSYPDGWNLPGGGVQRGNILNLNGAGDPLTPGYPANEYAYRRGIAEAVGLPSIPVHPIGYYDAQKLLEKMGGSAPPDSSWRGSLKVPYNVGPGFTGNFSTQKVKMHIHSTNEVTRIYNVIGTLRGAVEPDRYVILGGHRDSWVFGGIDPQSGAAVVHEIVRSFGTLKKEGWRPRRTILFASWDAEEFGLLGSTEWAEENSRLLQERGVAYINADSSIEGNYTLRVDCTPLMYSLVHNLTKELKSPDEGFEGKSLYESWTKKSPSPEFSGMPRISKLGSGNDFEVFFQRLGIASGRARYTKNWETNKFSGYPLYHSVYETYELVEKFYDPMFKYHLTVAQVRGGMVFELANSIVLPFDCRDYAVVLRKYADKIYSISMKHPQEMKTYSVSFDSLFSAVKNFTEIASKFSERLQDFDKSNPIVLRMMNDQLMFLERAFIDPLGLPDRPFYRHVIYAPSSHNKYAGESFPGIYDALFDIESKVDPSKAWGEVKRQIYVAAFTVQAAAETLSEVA
Nature of the experiment: FMAT, DU145 PSMA cells. Here is the method: (§1) Binding of His-tagged molecules to CHO human CD137, CHO parent, CHO human PSMA, DU145 PSMA and DU145 parent cells was assessed using Fluorescence Microvolume Assay Technology (FMAT). All reagents were prepared in FMAT assay buffer (pH 7.4) containing PBS, 0.1% Bovine Serum Albumin, 0.05% Sodium Azide. Serially diluted samples were transferred into 384 well black clear-bottomed assay plates (Costar cat. no. 3655) and incubated for a minimum of 2 hours at room temperature with 1.5 nM Anti-His (Millipore cat. no. 05-949), […] Goat Anti-Mouse Alexa Fluor-488 (Jackson ImmunoResearch cat. no. 115-545-071) and 2000 cells/well pre-stained with DRAQ5 (Thermo Scientific cat. no. 62251). Fluorescence emission was then measured on the TTP Mirrorball plate reader in the FL2 (502 nm-537 nm) and FL5 (677-800 nm) channels following excitation at 488 nm and 640 nm. Data was gated on FL5 perimeter and peak intensity and the FL2 median mean fluorescence intensity of the gated data used for determination of VH binding. Monovalent CD137 specific Humabody® VH, bispecific and trispecific molecules with a CD137 binding arm bound to CHO CD137 expressing cells. Monovalent PSMA specific Humabody® VH, bispecific and trispecific molecules with a PSMA binding arm bound to PSMA expressing cells.

The target of experiment [2] is T1, human PSMA expressed on cells. Nature of the experiment: FMAT, CHO human PSMA cells. Here is the method:
as §1

The target in experiment [3] is T2, human CD137 expressed on the surface of CHO cells (human, UniProt Q07011 24-255).
T2 construct: Also used for the Jurkat reporter cells that express human CD137 (functional rows); also called CHO human CD137 cells; CHO huCD137
T2 sequence (Q07011 24-255 limits assumed): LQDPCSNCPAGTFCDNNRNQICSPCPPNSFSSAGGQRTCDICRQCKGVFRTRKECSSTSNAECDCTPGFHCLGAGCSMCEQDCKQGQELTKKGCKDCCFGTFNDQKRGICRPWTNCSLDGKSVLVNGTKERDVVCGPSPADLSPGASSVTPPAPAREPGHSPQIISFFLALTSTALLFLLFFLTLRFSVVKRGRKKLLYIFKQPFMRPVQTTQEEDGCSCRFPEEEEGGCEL
Put plainly: FMAT, CHO human CD137 cells. Here is the method: as §1

The target in experiment [4] is T2, human CD137 expressed on the surface of …. Nature of the experiment: FMAT ligand inhibition, CD137 Ligand on CHO human CD137 cells. Summed up: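 Read-out was FMAT fluorescence (FL2 median intensity), normalised to total binding controls after subtracting non-specific binding set with excess non-Fc-tagged competitor. Inhibition by purified Humabody VH of human CD137 ligand binding to CHO human CD137 cells was reported as % control.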

For experiment [5], the target named is T3, human CD137-human Fc chimeric protein (Acro Biosystems cat no. 41B-H5258) (human, UniProt Q07011 24-186).
T3 construct: Bought protein; The Octet Protein G and Biacore experiments name no catalogue number; also called human CD137Fc recombinant protein; human CD137-Fc recombinant protein; not shown: human IgG1 Fc tag
Put plainly: BLI (Octet RED384), CD137-Fc amine-coupled to AR2G sensors, 1:1 model. Here is the method: (§2) The kinetics of monovalent and bispecific Humabody VH were determined on a ForteBio Octet RED 384 instrument. To study the interaction with the antigens, CD137-Fc tag protein (Acro Biosystems cat no. 41B-H5258) or PSMA-his (R&D Systems cat no. 4234-ZN) was immobilised onto AR2G biosensors (ForteBio cat no. 18-5082) by amine coupling. Monovalent VH and bispecific molecules were serially diluted (typically 1:2 dilution series starting between 12-25 nM, at the highest concentration) in kinetics buffer (0.1% BSA, 0.02% Tween, 1×PBS) and binding to the immobilised proteins was studied during the association and dissociation phases. PSMA binding was measured using 180 seconds association and 600 seconds dissociation phases. CD137 binding was measured 180 seconds association and 600 seconds dissociation phases. Reference subtracted data were fitted to a 1:1 binding model using the ForteBio Octet Data Analysis software.
In general terms: BLI is a label-free optical method that tracks binding on a fibre tip over time.

Experiment [6] has as its target T4, PSMA-his (R&D Systems cat no. 4234-ZN) (human, UniProt Q04609 44-750).
T4 construct: Bought protein; also called Human PSMA; not shown: His tag
Put plainly: BLI (Octet RED384), PSMA-his amine-coupled to AR2G sensors, 1:1 model. Here is the method:
as §2

Experiment [7] concerns the target T5, CD137 on pre-stimulated human CD8+ T cells (human, UniProt Q07011 24-255).
T5 construct: also called pre-stimulated CD8+ cells; primary T cells
Nature of the experiment: flow cytometry, PMA/ionomycin-stimulated human CD8+ T cells, mean of 2-3 donors. Here is the method: Binding to primary T cells was measured using flow cytometry. Peripheral blood mononuclear cells (PBMCs) were isolated from human blood by density gradient centrifugation then CD8+ T cells purified using a negative selection isolation kit according to the manufacturer's protocol (Miltenyi Biotech cat no 130-042-401). T-cells were stimulated PMA/Ionomycin for 48-72 hours in RPMI media supplemented with 10% FBS, 2 mM Glutamine, 1× Pen/Strep. Cells were transferred into 96 well plates, blocked for 10 mins with staining buffer (PBS/1% BSA/0.05% Sodium Azide) then incubated with serially diluted VH in staining buffer (PBS/1% BSA) for 30 mins-1 hour at 4° C. Cells were washed by centrifugation then VH binding detected using Anti His antibody (Millipore 05-949) and Goat Anti Mouse Alexa Fluor-488 (Jackson ImmunoResearch cat no. 115-545-071). A Live Dead near IR stain (Molecular Probes cat no. L10119) was used for discrimination of live cells. After further washing cells were fixed and fluorescence measured by flow cytometry.
A general note: In flow cytometry, cells or beads pass a laser one at a time.

Experiment [8] addresses T1, human PSMA expressed on cells. Nature of the experiment: dual binding cell ELISA: the titrated step is the binding of the bispecific to CHO human PSMA cells; readout is bound CD137huFc (fixed 1 nM) with anti human Fc-HRP, so the value reflects dual engagement. As for the experimental part:
Dual target engagement of CD137 and PSMA by the bispecific molecules was assessed using an ELISA format. CHO-PSMA cells (20000/well) were seeded into 96 well plates (Greiner cat no. 353872) in Hams F12 supplemented with L-Glutamine+Blasticidin+Tetracycline and incubated at 37° C. with 5% CO₂ overnight. All subsequent steps were performed at room temperature and included washes with PBS between each step. Plates were blocked with PBS/0.1% BSA for 1 hour then serially diluted Humabody® VH were added and allowed to bind for 1 hour. Following removal of unbound VH, 1 nM CD137huFc (Acro Biosystems cat no. 41B-H5258) was added to the wells and incubated for 1 hour. A 1:3000 dilution of Anti-huFc-HRP (Jackson ImmunoResearch cat no. 109-035-098) was subsequently added for 1 hour and plates developed by addition of TMB. The reaction was stopped by addition of 0.5M sulphuric acid and plates read on BMG PheraStar at Absorbance 450 nm.

Experiment [9] has as its target T3, human CD137-human Fc chimeric protein …. Put plainly: SPR (Biacore T200), single cycle kinetics, CD137-Fc captured on Protein G chip, mean ± SD; human CD137Fc. As for the experimental part: (§3) The Biacore T200 instrument was used to study the interaction between VH with human and rhesus CD137-human IgG1 Fc tagged protein by surface plasmon resonance (SPR). Single cycle kinetics assays used to evaluate the kinetics and affinity of the interaction. Experiments were performed at 25° C. in HBS-EP+ assay buffer with a flow rate of 30 μl/minute. A Protein G chip was used to capture the Fc tagged recombinant CD137 diluted to 2 μg/ml to one of the flow cells over 7 seconds. A second flow cell without any captured CD137 was used as the reference cell. A five point, three-fold dilution series of VH was made with a top concentration of 60 nM. The binding kinetics were followed by flowing these over the chip surface. The contact time for each of the binding steps was 180 seconds and the dissociation step was 1800 and 3600 seconds for rhesus and human CD137 respectively. After each run, the sensors were regenerated with glycine pH 1.5 to remove the captured CD137. The data was fitted to a 1:1 binding model after double reference subtraction using the Biacore T200 Evaluation software.
(SPR reads the build-up and loss of mass on a sensor chip optically.)

Experiment [10] deals with T6, rhesus CD137Fc recombinant protein (Sino Biologicals cat no. 90847-K02H) (rhesus; human, UniProt H9Z8K9 24-186).
T6 construct: Bought protein; also called rhesus CD137-human IgG1 Fc tagged protein; not shown: human IgG1 Fc tag
T6 sequence: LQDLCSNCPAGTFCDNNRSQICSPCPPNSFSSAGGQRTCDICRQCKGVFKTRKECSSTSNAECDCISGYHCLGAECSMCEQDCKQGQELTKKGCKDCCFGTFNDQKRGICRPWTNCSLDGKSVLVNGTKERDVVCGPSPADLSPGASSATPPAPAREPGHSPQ
Nature of the experiment: SPR (Biacore T200), single cycle kinetics, rhesus CD137-Fc captured on Protein G chip, mean ± SD; rhesus CD137Fc. Here is the method:
as §3

T4 sequence (Q04609 44-750 limits assumed): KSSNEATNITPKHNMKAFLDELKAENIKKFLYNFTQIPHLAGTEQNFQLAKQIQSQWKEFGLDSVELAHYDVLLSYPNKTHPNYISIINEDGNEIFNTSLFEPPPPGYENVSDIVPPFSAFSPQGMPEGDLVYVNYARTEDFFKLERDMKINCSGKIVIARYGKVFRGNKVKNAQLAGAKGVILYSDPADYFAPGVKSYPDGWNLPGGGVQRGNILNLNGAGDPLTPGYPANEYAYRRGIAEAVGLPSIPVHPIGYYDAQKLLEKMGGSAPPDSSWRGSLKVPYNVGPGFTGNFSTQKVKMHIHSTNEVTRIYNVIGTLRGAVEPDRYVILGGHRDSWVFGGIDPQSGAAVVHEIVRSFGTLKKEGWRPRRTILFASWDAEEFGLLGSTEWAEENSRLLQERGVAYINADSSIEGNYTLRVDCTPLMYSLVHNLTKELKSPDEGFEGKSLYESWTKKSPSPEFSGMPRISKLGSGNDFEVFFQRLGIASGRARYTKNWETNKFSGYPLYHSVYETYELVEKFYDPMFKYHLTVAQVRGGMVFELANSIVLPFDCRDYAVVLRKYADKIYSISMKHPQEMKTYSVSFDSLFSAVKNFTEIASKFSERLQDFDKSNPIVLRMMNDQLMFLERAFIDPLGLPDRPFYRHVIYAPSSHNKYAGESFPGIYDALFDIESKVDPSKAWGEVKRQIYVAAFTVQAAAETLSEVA
T5 sequence (Q07011 24-255 limits assumed): as the sequence (Q07011 24-255 limits assumed) above

B1: 4.1(PSMA-binding VH)-6GS-2.1 (bispecific antibody)
chain: EVQLVESGGGVVQPGRSLRLSCAASGFSFSGYGMHWVRQAPGKGLEWVAYISYDGSNKYYADSVKGRFTISRDNSKNTLYLQMNSLRAEDTAVYYCAKDPAWGLRLGESSSYDFDIWGQGTMVTVSSGGGGSGGGGSGGGGSGGGGSGGGGSGGGGSEVQLVESGGGLVKPGGSLRVSCAASGFTFSDYYMSWFRQAPGKGLEWVSYISGSGDIIDYADSVKGRFTISRDNAKNSLYLQMNNLRAEDTAVYHCAREDSRLTGTTDFDNWGQGTLVTVSS
notes: tandem VH, PSMA x CD137; also called 4.1-6GS-2.1; not shown: His tag
Regarding B1, the half-maximal effective concentration (EC50) in experiment [1] turned out to be 0.39 nM; in experiment [2] it was 0.28 nM; in [3] it was 0.97 nM; in experiment [7], 3 nM. This molecule had an IC50 in [4] of 13 nM. Moreover, the Kd in experiment [5] worked out at 4.8 nM; in [6], 0.66 nM. The figures for the dissociation rate constant (koff) in experiment [5] and in experiment [6] were 0.0026 s⁻¹ and 0.00033 s⁻¹, respectively. Moreover, the on-rate (kon) in [5] was 580000 M⁻¹ s⁻¹; in experiment [6], 500000 M⁻¹ s⁻¹. Also, in experiment [8], the “EC50 (read off the curve)” value was around 1 nM.

B2: 4.1(PSMA-binding VH)-6GS-1.1 (bispecific antibody)
chain: EVQLVESGGGVVQPGRSLRLSCAASGFSFSGYGMHWVRQAPGKGLEWVAYISYDGSNKYYADSVKGRFTISRDNSKNTLYLQMNSLRAEDTAVYYCAKDPAWGLRLGESSSYDFDIWGQGTMVTVSSGGGGSGGGGSGGGGSGGGGSGGGGSGGGGSEVQLVESGGGLVQPGGSLRLSCAASGFTFSSHWMTWFRQAPGKGLEWVAHIKEDGSEKYYEDSVEGRFTVSRDNAKNSVYLQMNSLRAEDTAVYYCARGGDGYSDSHFGVDVWGQGTTVTVSS
notes: tandem VH, PSMA x CD137; also called 4.1-6GS-1.1; not shown: His tag
Consider B2, for which the EC50 in experiment [1] stood at 0.21 nM; in experiment [2], 0.19 nM; in experiment [3], 0.43 nM; in experiment [7], 0.73 nM. In addition, in experiment [4], inhibition was half-maximal at 2.5 nM (IC50). Further, the Kd in experiment [5] was 0.73 nM; in [6], 1.3 nM. Besides, the koff is 0.00031 s⁻¹ in experiment [5] and 0.00054 s⁻¹ in experiment [6]. In addition, the kon in experiment [5] was determined as 410000 M⁻¹ s⁻¹; in experiment [6], 430000 M⁻¹ s⁻¹. For the same molecule, the half-maximal effective concentration (EC50 (read off the curve)) in experiment [8] was around 0.8 nM.

B3: PSMA binding single VH domain antibody 4.1 (VHH)
VHH: EVQLVESGGGVVQPGRSLRLSCAASGFSFSGYGMHWVRQAPGKGLEWVAYISYDGSNKYYADSVKGRFTISRDNSKNTLYLQMNSLRAEDTAVYYCAKDPAWGLRLGESSSYDFDIWGQGTMVTVSS
notes: human single VH domain, PSMA specific
Molecule B3 had a half-maximal effective concentration (EC50) in [1] of 0.19 nM. Besides, the EC50 in [2] is 0.17 nM. Also, in experiment [6], the affinity, expressed as Kd, was 0.53 nM; the koff turned out to be 0.00016 s⁻¹; the kon amounted to 310000 M⁻¹ s⁻¹.

B4: Humabody VH 1.113 (VHH)
VH: EVQLVESGGGLVQPGGSLRLSCAASGFTLSNYWMNWVRQAPGKGLEWVANINQDGSERYYVDSVKGRFTISRDNAKNSLYLQMNSLRAEDTAVYYCARGGEGYGVDHYGLDVSGQGTTVTVSSHHHHHH
notes: human single VH domain
Take B4: the midpoint of the response in [3], the EC50, lay at 0.09 nM. In [4], this molecule had an IC50 of 0.73 nM. In experiment [9], the equilibrium dissociation constant (Kd) stood at 0.085 nM, the koff turned out to be 0.0003 s⁻¹ and the on-rate constant (kon) worked out at 3.6e+06 M⁻¹ s⁻¹. Moreover, in [10], the dissociation constant (Kd) amounted to 0.27 nM, the koff worked out at 0.00028 s⁻¹ and the kon was 1.1e+06 M⁻¹ s⁻¹.

These data come from patent US20200362047A1 (CRESCENDO BIOLOGICS, published 2020).
